Test results from the DeepSol protein solubility set.

Assay: soluble on expression in E. coli; label from the status in PepcDB or PDB records

| Sequence | soluble on expression in E. coli |
| --- | --- |
| MGSDKIHHHHHHMRVTADEGLYGEEATQGTEFRFHCETLFSRSSLHRFEIGLHRHSAFLQILYIFGGEGDALLEGRIEPIRPPVAIIVPPGFEHGFRFSRDIGGVIVTMLPGALPASVQALLLRNFQQPVLLRLRDFAEKDGLRSGFERISAEYEAREIGRDAMIEGQLATVVTLLSRAARPLLETSGEGLAEQRFERLLSLIARHIREPQKAGFYAGKLGLSETHLNRLVRSVSGLSLQRLIAKRQIEIAQQELIFTVSSVQMIAEGLGFADPAYFNRFFKRETGMTPRAWRLAEQRKMGDTGARLTPPQTSILASSR | not soluble |
| MGSDKIHHHHHHMNKNPEIQFRSPEEIKAYQESRLAEELLYLQNHSRFYQHLFQAYHIDIQQIKTIEDLQQIPVTTKTDLQLHNEDFICVSRDEIIDYVTTSGTLGDPVTFVLTSEDLDRLAYNEYLSFTTTGCSRQDILQLMTTIDRRFMAGLAYYMGARELGMGVARVGNGIPELQWDTIRRIHPTCGMVVPSFLIKLIEFAEKNHIDYHHCSMQKCVCIGEALRNPDFTLNTLGKRIHEKWDSLQLYSTYASTEMQSSFTECNEFHGGHLQPELIIVEFLDDNNQPVKEGEAGEVTITTLGVRGMPLLRFKTGDICYHYTEPCACGRNTIRLSSILGRKGQMIKYKGTTLYPPALFDILDNIPHIKNYIVEVYTNELGTDEILIRIGSENRSEAFAKEIKDLFRSKVRVAPSINFESAEYIAKIQMPPMSRKIVKFIDLR | not soluble |
| VSGAHTDVRPELRKLAQAILDGIDPAVRVAAAMASGGGPGTGKCQQVWCPLCALAALVTGEQHPLLTVIADHSLALLEVIRAIVDDIDRSAKPPPEGPPGGGQTGASGGENTNGEGSMKSHYQAIPVTIEE | not soluble |
| MGSDKIHHHHHHMILSHFSTKVVTFFGSRFKAVRGVDLKRYRKELKLKQQELASKLGIERSLISKIESGKRVISKELEQKIINVLNLDGGHASVEAKIDFLRIRFKTLDVRTVIEKLLHMDMNWFTHESRGFYHYTETFSYSSIRIFRNPENVNMGIMLDLSGEGCRQLEEIFEEDNNRSWTEFFRSLYDDDIFGQGILVDTKITRIDIALDELIVKGQENFDLYVLKEKMEQGLVDTTFKNFDFSGGFVYENKKMVNKGLSLYFGSRQSPLYFNFYQKDYELARKESMSVEEAREKHEIKNRYEIRLSDEKAFLFVEYFLSSGESLDWLVKEIINQSLTVYDIEDDMKVYCKSWHDVVDKLEGLKLSVQGEKPSIEKTLRWLSNYLAPSLKMIKEIDNLLGTNELMERIDLAELKEKHEEIIEMVSVDAKDLLFTNRDNKSVRSYMEREFELEEMYPF | not soluble |
| MGSDKIHHHHHHEDSNPNALSPGIFWKSEGDIMKGLTSVYGALQPNASWAIPFERYIVIDGYRSDEITHRDDVTSWMNISSFNVEPTNSVVKTEWTNLYKGINYANQCLTNIPTVPGDSESLNALKKQSIAEARFLRAYFYYRLYVNFGERVPIYKEALAGTDEEFYPPQANPGELVSLIETELKEVQSDLPESYEESEKGRVTRYTAAALLGKFYMFRKELSKAEVEFKKIIDKEGSLFGLMENWADNFDGMHKNNKESLFEIQFTGDRSGGQYEYNLFTVHLGPMAGLDAYEEAYPTDWMCQTLLADKTIDGKSSDRALHTLIFDDPECRPFYYKNGKSFKDYHKEGEIFWHKYVTYTEGMSDYWDYSFFNVSVIRYADVLLLYAECLNDKGETTEAINIINKVRARVNVPALPLTMSKAEVLKHLQDKERPCELALEGSRWYDLVRWGIVEETLKAHNKPFVENYVDTKHQLFPIPHSEFLLNPDWEQNPNYSK | not soluble |
| MAPTQAGHDTAYLKETVGEALARGCAAAISAQPNDPVEYLGLWLLKYVKNAEVEGNFYRERQQDLQKKKDRLVKEAQSEQAAKSVALTRKEAADALALVTAEPRELLEAAVKLVKQHTAAGAAYAAVVAEPEEPDWVAPEDDEAAAVETEDEAAGGAALAEGEEPPPEPEPEPEAAPEDGEGDAPAPKIPRPVDYSKKYFAYVAASAGQEHVLEADLYRPAPPPEDADEDFKPEPLPYSFRVLDEKLPMLYVPNVAAEERVKFFRKFPKIGSYQACGVALPASGEFKALLAADTLFPEGSGQPLSADDRDFVWEVSQSLSRALEAVQARAAEALAATSAAEAVEELKAKVAELREQAAAEAAAAAPPPPAEGEEGEGEAPPAEEEPPAEEEAEEEEEEAEEGAEEGAEEGEEGEEAPPKPKKKKKVFNPIPGLQAAIEKLTAAAEAATEADARAQAAVALEKQALDEVVALASSHSDATLSSLRNMLSVPQGTYHVVKALLHLLGRPAASFSTWKRAHSHFSPRLFEDMAAYDATAERDMAVWGRVRSCYKAAPAAKKLDAEMPNTLFGSVALMYIKQVRRVARKAVLQRELAAKLAKAQQDLADKQAALVEAERVKAEREAEEARLAAEAEAAAAAEAEAAARAAAEAEAAAAAEAAAEAAAEAAAAAAEAAAEAGEGEAVAEREAAPAEAEAAPAEGEAAPPAEGEGEAQPAQEGSNSSSSSSDSSSSEESKAAAE | not soluble |
| FNKKEVLDLTSPKNSIRSRNKLRRTLRNIQERIEDELNHEREALIQDFDYRLAVTYDQMLKDSNIPFSVKDVMAFIEKHTGVRFG | soluble |
| MGSDKIHHHHHHLTLRVAVIGSGPAGSSAAETLAASGIETYLFERKLDNAKPCGGAIPLCMVSEFDLPPEIIDRRVRKMKMISPSNREVDINLINEDEYIGMCRREVLDGFLRDRAAKLGANLINATVHKLDIPGNNTDPYTIHYVDHTEGISQGIAKTLKVDLIIGADGANSRVAKEMDAGDYNYAIAFQERIRLPEDKMAYYNDLAEMYVGDDVSTDFYAWVFPKYDHVAVGTGTMHINKASIKQLQAGIRARASEKLAGGKIIKVEAHPIPEHPRPRRVVGRIALVGDAAGYVTKSSGEGIYFAAKSGRMCAETIVEASNSGSRIPTEGDLKIYLKRWDKRYGLTYKVLDILQSVFYRSDATREAFVEMCDDLDVQRLTFDSYLYKTVVPANPITQLKITAKTIGSLIRGNALAP | not soluble |
| MGSDKIHHHHHHMITTARPNVLWIMADQLRFDYLSCYGHPHLHTPHIDALAARGVRFTNAYVQSPVCGPSRMSAYTGRYVRSHGSTWNGMPLRVGEPTLGDHLREAGARAVLVGKTHMVADAEGMAWLGIDPKSEIGVSRSECGFEPFERDDGLHPDSPRQRWSAYDDYLVSHGYDSQNPWEDFANSGVDADGELLSAWLLKNSRLAANVPEEHSETAYMTDRAMAFMEEAEADGRPWMCHLSYIKPHWPYIVPAPYHDMYDESHIIDPVRSEAERDNAHPLVGAYQNSRVCRTFSRDQVRDHVIPAYMGLIKQLDDNLGRLFAWMDARGLSENTIIAFTSDHGDYMGDHWMGEKDFYHEMAVKVPMIIADPRPQADGTRGHVADDLVEMIDLAPTFMTALGAAPKPHIIEGRDLTPLLHGTDGFARQYVISEYDYHWSEMAAALQVPQEDAHTTMIFDGRWKYIRCERFDPVLFDLETDPQELVDLGTSPAHAEIRALMDAALLKWATQHHTRITATAAVLAGQKIAAETGILIGFWDEAEFEAATGFPFTDLTPQGPPK | not soluble |
| MVLYVPTYREDKADNRAIDKAYFEKCLPGYTLINKLHPSIEDSDIDDVSSIDTSTLMLMSDIIISDYSSLPIEASLLDIPTIFYVYDEGTYDKVRGLNQFYKAIPDSYKVYTEEDLIMTIQEKEHLLSPLFKDWHKYNTDKSLHQLTEYIDKMVTK | not soluble |
| MTTLTLNTSLLSSRRILAAFSGGLDSTVLLHQLVLWRERHPDVTLRAIHIHHGLSPHADSWVRHCETVCERWQVPLVVERVTLADNGLGIEAHAREARYRAFAQTLLPGEVLATAQHLDDQCETFLLALKRGSGPAGLSAMGERSPFAGTLLLRPLLRETRKTLEQWAVRHGLCWIEDESNQDDAYDRNFLRLRALPLLQQRWPHFPAAVARSATLCAEQERLLDELLASDLTDCITAEGTLRLSPLMSMSDVRRAAILRRWLAMRNAPMPSRDALERIWQEVALARDDASPCLRFGDHEIRRYQSQLWWIKSVAGQHETTVAWPVWQTPLALPAGLGTVQLVPGGELRRPREEESVSIRFKAPGVLHIVGRNGGRKLKKIWQEQGIPPWRRDTTPLLFYGETLIAAAGVFVTREGAAEDKEGVSLVWHA | not soluble |
| MIILIRYGPIDVTYCRMKRGFMYMVAIIDWYSRYIVGFELSNTLDKTFVIEAIQKAIKRYGKPEIMNSDQGSQFTSDDYINLLKNNGIKISMDGKGRALDNQRIERFFRSYKWEKLYLEECETVQQLRQITKEYVEHYNHRRPHQSLDYKTPAEYYFGGYDQLLAVV | not soluble |
| MQAQNMTEASTVHVEHDPVRQRFNVDTDGHRAELAYRREGEIMTITHTQVPDAVSGRGIAAALVEDALAFARQHGLKVVPACRYADAYVRRHPRYQDLLAMAGDPLEHHHHHH | not soluble |
| AIAESTKSNDIPILRNVSDSFSDHYGKYLQRCGIFVPKDGDSSGPDAYVVFHNGQTRYVVAFSFTFYHKTEFSKRDIEKEAEQFFQEVISVLNDGSPSSVQLCFQFVVVCTRYDRSVVFSSEEQNIVEDASYLVTEHSAGSTLNESRRSCLQLVVVSQRNLERFLGRENFDILRKIGKASREEFRKDFSVWCKTVFESMSDEYVSPLEAKPFNVTLRVARNIRPRTNEENRMQMEGFQTAMQVEEGNTRGEQRVAASSSLSSSFDWNTFLREYCGLSEEDVAYCLPKVEDIDMDELPAVTKEILRDLGIDKPALRLKIRSSIRSYLANER | soluble |
| MKDLSSIVAKFNTQGTITEIKPLGAGLINDTYKVNTQEADAPDYVLQRINHAIFQNVEMLQSNIAAVTGHIRKKLTEAGEADIDRKVLSFLATEEGKTYWFDGESYWRVMVFIPRAKTYETVNPEYSNYAGEAFGNFQAMLADIPETLGETIPDFHNMEFRLKQLRDAVAANAAGRVAEVQYYLDEIEKRADEMCKAERLFREGKLPKRVCHCDTKVNNMMFDEDGKVLCVIDLDTVMPSFIFSDYGDFLRTGANTGDEDDKDLNRVNFNMEIFKAFTKGYLKGAKSFLTPIEIENLPYAAALFPYMQCVRFLADYINGDTYYKIKYPEHNLVRTKAQFKLLQSVEEHTPEMVAFINECLVNGLEHHHHHH | soluble |
| MSAESGVAALLRLMAWLSPAFPVGGFSYSGGLEKAVEDGRVCDAAGLGGWVETLLRHGSLWNDAVFLAHAWRSSQDTTALSETANLGRALAGSAERYRETVLLGDAFIAAASAWPHAVLELLPKEAPYPVAIGAVAAGHGVPLRETLAAFLHAGVSQIVSAGIRLGVAGQKDGVAILAASEAVIEEIAARAALSTLDDLGSATVIADTAAMRHETQGTRLFRSLEHHHHHH | not soluble |
| MTVQIPKLLFLHGFLQNGKVFSEKSSGIRKLLKKANVQCDYIDAPVLLEKKDLPFEMDDEKWQATLDADVNRAWFYHSEISHELDISEGLKSVVDHIKANGPYDGIVGFSQGAALSSIITNKISELVPDHPQFKVSVVISGYSFTEPDPEHPGELRITEKFRDSFAVKPDMKTKMIFIYGASDQAVPSVRSKYLYDIYLKAQNGNKEKVLAYEHPGGHMVPNKKDIIRPIVEQITSSLQEASE | soluble |
| MSLGEKRVELHLHTPMSQMDAVTPVSKLVAQAGKWGHEAIAVTDHAVAQSFPEAYSAGKKAGVKVIYGVEANLVNDGVPIAYNEEHRLLADETYVVFDVETTGLSAVYDTVIELAAVKVKGGEIIDRFESFANPHQPLSATIIELTGITDDMLTDAPEVDEVFKKFEEWMGDHTLVAHNASFDMGFINVGFKKAGLEKTKNPVIDTLELARFLFPEMKNHRLNTLCKKMDIELTQHHRAIYDTEATGYLLVKMLKDVIEKGFEYHDQLNDSMGQGDAYKRGRPSHMTLLATSDVGLKNLYKLVSYSHLNYFYRVPRVPRSLLKKYREGILVGTACDKGEVFEAMMQKAPEEVEEIAQFYDYIEVMPPEVLRHLVERELVRDEGQLKTIISNLVKLGETLDKPVVATGNVHYLDPEDAMYRKILVSSQGGANPLNRHSEGHHHHHH | soluble |
